# Test results reported in patent US20230265151A1, “GIP/GLP1 CO-AGONIST COMPOUNDS” (priority 2020, published 2023).
# Numbering of substitutions follows the chain as printed.
# T1: human GIP receptor (human, UniProt P48546 22-466)
# T1 construct: whole, on cells; also called hGIPR; human glucose-dependent insulinotropic polypeptide receptor
# T1 sequence (looked up): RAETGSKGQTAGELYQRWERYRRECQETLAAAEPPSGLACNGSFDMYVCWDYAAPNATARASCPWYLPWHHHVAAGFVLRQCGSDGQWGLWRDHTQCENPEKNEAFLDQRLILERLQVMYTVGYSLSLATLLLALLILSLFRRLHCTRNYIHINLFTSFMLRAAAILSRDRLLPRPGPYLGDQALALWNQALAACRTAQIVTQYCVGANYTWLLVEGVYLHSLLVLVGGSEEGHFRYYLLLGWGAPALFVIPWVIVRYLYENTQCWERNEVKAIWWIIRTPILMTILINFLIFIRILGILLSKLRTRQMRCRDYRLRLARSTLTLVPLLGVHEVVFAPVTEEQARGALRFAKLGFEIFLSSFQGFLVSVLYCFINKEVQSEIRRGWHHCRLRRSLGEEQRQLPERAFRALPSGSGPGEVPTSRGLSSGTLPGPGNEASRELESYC
# T2: human GIP receptor (human, UniProt P48546 22-466)
# T2 sequence (looked up): T1 sequence (looked up)
# B1: Y-Aib-EGT-αMeF(2F)-TSD-4Pal-SI-αMeL-LD-Orn-K((2-[2-(2-Amino-ethoxy)-ethoxy]-acetyl)2-(10-(4-carboxyphenoxy)decanoyl))AQ-Aib-EFI-(D-Glu)-αMeY-LIEGGK((2-[2-(2-Ami … (peptide)
# peptide: YXEGTXTSDXSIXLDXKAQXEFIXXLIEGGKSSGAPPPS
# modifications: Aib2, αMeF(2F)6, 4Pal10, αMeL13, Orn16, K17(Z1), Aib20, D-Glu24, αMeY25, K31(Z1), C-term NH2; Z1=AEEA2-(10-(4-carboxyphenoxy)decanoyl)
# B2: Y-Aib-EGT-αMeF(2F)-TSD-4Pal-SI-αMeL-LD-Orn-K((2-[2-(2-Amino-ethoxy)-ethoxy]-acetyl)-(γ-Glu)-CO-(CH2)14-CH3)AQ-Aib-EFI-(D-Glu)-αMeY-LIEGGK((2-[2-(2-Amino-ethoxy) … (peptide)
# peptide: B1 peptide
# modifications: Aib2, αMeF(2F)6, 4Pal10, αMeL13, Orn16, K17(Z1), Aib20, D-Glu24, αMeY25, K31(Z1), C-term NH2; Z1=AEEA-(γ-Glu)-CO-(CH2)14-CH3
# B3: Y-Aib-EGT-αMeF(2F)-TSD-4Pal-SI-αMeL-LD-Orn-K((2-[2-(2-Amino-ethoxy)-ethoxy]-acetyl)-(γ-Glu)-CO-(CH2)12-CO2H)AQ-Aib-EFI-(D-Glu)-αMeY-LIEGGK((2-[2-(2-Amino-ethoxy … (peptide)
# peptide: B1 peptide
# modifications: Aib2, αMeF(2F)6, 4Pal10, αMeL13, Orn16, K17(Z1), Aib20, D-Glu24, αMeY25, K31(Z1), C-term NH2; Z1=AEEA-(γ-Glu)-CO-(CH2)12-CO2H
# B4: Y-Aib-EGT-αMeF(2F)-TSD-4Pal-SI-αMeL-LD-Orn-K((2-[2-(2-Amino-ethoxy)-ethoxy]-acetyl)-(γ-Glu)-CO-(CH2)10-CH3)AQ-Aib-EFI-(D-Glu)-αMeY-LIEGGK((2-[2-(2-Amino-ethoxy) … (peptide)
# peptide: B1 peptide
# modifications: Aib2, αMeF(2F)6, 4Pal10, αMeL13, Orn16, K17(Z1), Aib20, D-Glu24, αMeY25, K31(Z1), C-term NH2; Z1=AEEA-(γ-Glu)-CO-(CH2)10-CH3
# B5: Y-Aib-EGT-αMeF(2F)-TSD-4Pal-SI-αMeL-LD-Orn-K((2-[2-(2-Amino-ethoxy)-ethoxy]-acetyl)-(γ-Glu)-(10-(4-carboxyphenoxy)decanoyl))AQ-Aib-EFI-(D-Glu)-αMeY-LIEGGK((2-[2 … (peptide)
# peptide: B1 peptide
# modifications: Aib2, αMeF(2F)6, 4Pal10, αMeL13, Orn16, K17(Z1), Aib20, D-Glu24, αMeY25, K31(Z1), C-term NH2; Z1=AEEA-(γ-Glu)-(10-(4-carboxyphenoxy)decanoyl)
# B6: Y-Aib-EGT-αMeF(2F)-TSDK((2-[2-(2-Amino-ethoxy)-ethoxy]-acetyl)2-(γ-Glu)-CO-(CH2)14-CH3)SI-αMeL-LD-Orn-K((2-[2-(2-Amino-ethoxy)-ethoxy]-acetyl)2-(γ-Glu)-CO-(CH2) … (peptide)
# peptide: B1 peptide with X10K, K31P
# modifications: Aib2, αMeF(2F)6, K10(Z1), αMeL13, Orn16, K17(Z1), Aib20, D-Glu24, αMeY25, C-term NH2; Z1=AEEA2-(γ-Glu)-CO-(CH2)14-CH3
# B7: Example 218 (peptide)
# peptide: YXEGTXTSDXXIXLDXIAQXKFIKXLIEGGPSSGAPPPS
# modifications: Y-Aib-EGT-αMeF(2F)-TSD-4Pal-Aib-I-αMeL-LD-Orn-IAQ-Aib-K((2-[2-(2-Amino-ethoxy)-ethoxy]-acetyl)2-(γ-Glu)-CO-(CH2)12-CO2H)FIK((2-[2-(2-Amino-ethoxy)-ethoxy]-acetyl)2-(γ-Glu)-CO-(CH2)12-CO2H)-αMeY-LIEGGPSSGAPPPS-NH2
# B8: Example 222 (peptide)
# peptide: B7 peptide with X11S, K24X, E28K
# modifications: Y-Aib-EGT-αMeF(2F)-TSD-4Pal-SI-αMeL-LD-Orn-IAQ-Aib-K((2-[2-(2-Amino-ethoxy)-ethoxy]-acetyl)2-CO-(CH2)12-CO2H)Fl-(D-Glu)-αMeY-LIK((2-[2-(2-Amino-ethoxy)-ethoxy]-acetyl)2-CO-(CH2)12-CO2H)GGPSSGAPPPS-NH2 …
# B9: Example 219 (peptide)
# peptide: B7 peptide with K21E, E28K
# modifications: Y-Aib-EGT-αMeF(2F)-TSD-4Pal-Aib-I-αMeL-LD-Orn-IAQ-Aib-EFIK((2-[2-(2-Amino-ethoxy)-ethoxy]-acetyl)2-(γ-Glu)-CO-(CH2)12-CO2H)-αMeY-LIK((2-[2-(2-Amino-ethoxy)-ethoxy]-acetyl)2-(γ-Glu)-CO-(CH2)12-CO2H)GGPSSGAPPPS-NH2
# B10: Example 221 (peptide)
# peptide: YXEGTXTSDXSIXLDXKAQXEFIXXLIEGGPSSGAPPPSK
# modifications: Y-Aib-EGT-αMeF(2F)-TSD-4Pal-SI-αMeL-LD-Orn-K((2-[2-(2-Amino-ethoxy)-ethoxy]-acetyl)2-CO-(CH2)12-CO2H)AQ-Aib-EFI-(D-Glu)-αMeY-LIEGGPSSGAPPPSK((2-[2-(2-Amino-ethoxy)-ethoxy]-acetyl)2-CO-(CH2)12-CO2H)-NH2
# Target: T1, human GIP receptor
# Assay: SPA competition vs [125I]-GIP, hGIPR membranes
row,Binder,Ki [nM]
1,B1,0.0489
2,B2,0.0575
3,B3,0.0508
4,B4,0.036
5,B5,0.0575
6,B6,0.0505

# Target: human glucagon receptor (human, UniProt P47871 26-477)
# Assay: cell-based or functional assay
row,Binder,cAMP EC50 (1.0% HSA) [nM]
1,B7,> 9950
2,B8,> 9950
3,B9,> 9950
4,B10,> 9950

# Target: T2, human GIP receptor
# Assay: cell-based or functional assay
Binder,cAMP EC50 (1.0% HSA) [nM],cAMP Emax (1.0% HSA) [%]
B7,3.27,95.9
B8,2.1,
B9,2.86,
B10,0.838,67.4

# Target: human GLP-1 receptor (human, UniProt P43220 24-463)
# Assay: cell-based or functional assay
Binder,cAMP EC50 (1.0% HSA) [nM],cAMP Emax (1.0% HSA) [%]
B7,36.6,121
B8,13.8,117
B9,25.9,
B10,17.9,

# Target: T3, human GLP-1 receptor (human, UniProt P43220 24-463)
# T3 construct: whole, on cells; also called hGLP-1R; human glucagon-like peptide-1 receptor
# Assay: SPA competition vs [125I]-GLP-1, hGLP-1R membranes
# How it was run: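 Competition binding in 25 mM HEPES pH 7.4, 2.5 mM CaCl₂, 1 mM MgCl₂, 0.1% bacitracin, 0.003% TWEEN-20, EDTA-free protease inhibitors. IC₅₀ from four-parameter nonlinear fit; Kᵢ given as geometric mean ± SEM, n = independent replicates on different days.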
row,Binder,Ki [nM]
1,B1,0.681
2,B2,0.691
3,B3,1.06
4,B4,0.286
5,B5,0.638
6,B6,0.412

# Target: T4, human glucagon receptor (human, UniProt P47871 26-477)
# T4 construct: whole, on cells; also called hGCGR; hGcgR
# Assay: SPA competition vs [125I]-Gcg, hGcgR membranes
# T4 sequence (P47871 26-477): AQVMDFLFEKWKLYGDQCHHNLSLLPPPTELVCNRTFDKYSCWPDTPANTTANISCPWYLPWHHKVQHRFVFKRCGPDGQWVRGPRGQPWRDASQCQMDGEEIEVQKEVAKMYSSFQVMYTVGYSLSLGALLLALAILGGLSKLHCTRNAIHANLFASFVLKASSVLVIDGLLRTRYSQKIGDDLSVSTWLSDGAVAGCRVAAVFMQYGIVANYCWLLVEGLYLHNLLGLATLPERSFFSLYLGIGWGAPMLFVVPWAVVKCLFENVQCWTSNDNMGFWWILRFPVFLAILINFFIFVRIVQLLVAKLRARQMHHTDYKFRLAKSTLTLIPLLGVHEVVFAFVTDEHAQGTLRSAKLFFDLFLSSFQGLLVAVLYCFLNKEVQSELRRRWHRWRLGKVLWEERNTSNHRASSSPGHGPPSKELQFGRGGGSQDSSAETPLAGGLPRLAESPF
row,Binder,Ki [nM]
1,B1,424
2,B2,0.987
3,B3,660
4,B4,17.6
5,B5,213
6,B6,0.923
